Data published in US7326418B2, “Identification of novel factors that block programmed cell death or apoptosis by targeting JNK” (University of Chicago, priority 2001, dated 2008).

T1: ASK1 (Homo sapiens, UniProt Q99683)
T1 sequence (Q99683 1-1374): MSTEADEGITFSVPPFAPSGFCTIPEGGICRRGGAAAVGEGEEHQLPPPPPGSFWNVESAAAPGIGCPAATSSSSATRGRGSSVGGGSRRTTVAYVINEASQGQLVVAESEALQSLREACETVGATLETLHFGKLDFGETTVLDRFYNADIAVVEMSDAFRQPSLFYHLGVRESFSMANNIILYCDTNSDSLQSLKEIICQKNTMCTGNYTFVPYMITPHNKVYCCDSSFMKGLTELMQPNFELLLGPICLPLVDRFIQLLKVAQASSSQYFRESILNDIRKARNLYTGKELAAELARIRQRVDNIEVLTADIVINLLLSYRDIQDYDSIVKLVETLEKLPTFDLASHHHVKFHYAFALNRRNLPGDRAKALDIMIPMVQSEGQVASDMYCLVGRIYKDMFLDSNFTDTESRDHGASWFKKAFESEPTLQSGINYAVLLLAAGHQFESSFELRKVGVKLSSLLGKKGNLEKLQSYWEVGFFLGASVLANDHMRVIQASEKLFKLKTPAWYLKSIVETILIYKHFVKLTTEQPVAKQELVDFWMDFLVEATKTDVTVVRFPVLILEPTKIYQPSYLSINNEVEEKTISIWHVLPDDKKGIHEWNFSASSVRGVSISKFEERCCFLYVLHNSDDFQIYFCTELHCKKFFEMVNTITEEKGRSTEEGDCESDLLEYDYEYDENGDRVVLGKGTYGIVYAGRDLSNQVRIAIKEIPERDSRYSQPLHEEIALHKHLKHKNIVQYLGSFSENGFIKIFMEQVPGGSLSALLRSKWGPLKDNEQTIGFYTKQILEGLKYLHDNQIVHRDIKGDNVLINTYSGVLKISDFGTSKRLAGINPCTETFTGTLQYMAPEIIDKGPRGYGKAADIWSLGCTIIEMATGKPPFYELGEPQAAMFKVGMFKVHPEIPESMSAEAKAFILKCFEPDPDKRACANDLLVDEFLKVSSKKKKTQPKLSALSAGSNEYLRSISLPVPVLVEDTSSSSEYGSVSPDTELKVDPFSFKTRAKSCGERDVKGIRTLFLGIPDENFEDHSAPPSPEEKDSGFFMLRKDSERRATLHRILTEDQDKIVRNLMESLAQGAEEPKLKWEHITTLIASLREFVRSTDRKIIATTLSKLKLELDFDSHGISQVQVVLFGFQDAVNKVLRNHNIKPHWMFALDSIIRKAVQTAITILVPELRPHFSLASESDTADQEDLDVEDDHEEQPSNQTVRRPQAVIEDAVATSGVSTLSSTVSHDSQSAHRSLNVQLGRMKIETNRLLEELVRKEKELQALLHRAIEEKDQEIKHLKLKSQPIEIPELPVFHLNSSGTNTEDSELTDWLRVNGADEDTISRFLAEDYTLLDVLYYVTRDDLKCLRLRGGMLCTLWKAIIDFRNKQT

B1: GST-Gadd45β: full-length murine Gadd45β directly fused to GST, purified from E. coli (protein)
chain: MTLEELVASDNAVQKMQAVTAAVEQLLVAAQRQDRLTVGVYEAAKLMNVDPDSVVLCLLAIDEEEEDDIALQIHFTLIQSFCCDNDIDIVRVSGMQRLAQLLGEPAETLGTTEARDLHCLLVTNCHTDSWKSQGLVEVASYCEESRGNNQWVPYISLEER
modifications: left off: a dimerising Fc or GST
notes: full-length murine Gadd45β directly fused to GST, purified from E. coli
B2: Gadd45β: purified recombinant His6-tagged Gadd45β protein; also used generically for the recombinant Gadd45β proteins (protein, UniProt O75293 1-160, looked up)
Growth arrest and DNA …: MTLEELVACDNAAQKMQTVTAAVEELLVAAQRQDRLTVGVYESAKLMNVDPDSVVLCLLAIDEEEEDDIALQIHFTLIQSFCCDNDINIVRVSGMQRLAQLLGEPAETQGTTEARDLHCLLVTNPHTDAWKSHGLVEVASYCEESRGNNQWVPYISLQER
modifications: His6 tag
notes: purified recombinant His6-tagged Gadd45β protein; also used generically for the recombinant Gadd45β proteins
B3: His6-Gadd45β: human full-length Gadd45β purified from E. coli as His6-tagged protein (protein, UniProt O75293 1-160, looked up)
chain: B2 Growth arrest and DNA …
modifications: full-length His6 tag
notes: human full-length Gadd45β purified from E. coli as His6-tagged protein

molecular target: T1, ASK1; assay: Kinase assay of immunoprecipitated FLAG-ASK1 with recombinant Gadd45β proteins; type: biochemical; design: expressed in transfected cells; host or cells: HEK-293; anti-FLAG immunoprecipitate; conditions: in vitro, even at high concentrations
Description: Next, the functional consequences, in vitro, of the physical interactions of Gadd45β with kinases in the JNK pathway were assessed. Murine and human, full-length Gadd45J3 proteins were purified from E. coli as GST-Gadd45β and His6-tagged Gadd45β (His6 disclosed as SEQ ID NO: 46), respectively, according to standard procedures. Prior to employing these proteins in in vitro assays, purity of all recombinant polypeptides was assured by >98%, by performing Coomassie blue staining of SDS polyacrylamide gels. Then, the ability of these proteins, as well as of control GST and His6-EF3 (His6 disclosed as SEQ ID NO: 46)proteins, to inhibit kinases in the JNK pathways was monitored in vitro. FLAG-tagged JNKK2, JNKK1, MKK3, and ASK1 were immunoprecipitated from transiently transfected 293 cells using anti-FLAG antibodies and pre-incubated for 10 minutes with increasing concentrations of recombinant proteins, prior to the addition of specific kinase substrates (i.e. GST-JNK1 with JNKK1 and JNKK2; GST-p38[…] with MKK3; GST-JNNK1 or GST-JNKK2 with ASK1). […] These findings indicate that, upon binding to Gadd45β, JNKK2 is effectively inactivated.
A question was whether Gadd45β inhibited active MKK7, in vitro. FLAG-MKK7 was immunoprecipitated from TNFα-treated or untreated 293 cells, and kinase assays were performed in the presence of purified His6-Gadd45β (His6 disclosed as SEQ ID NO: 46), GST-Gadd45β, or control proteins (FIG. 28d; see also FIG. 28g). […] Consistent with the in vivo findings (FIG. 27), the inhibitory activity of Gadd45β was specific. […] Indeed, the effects of Gadd45β on MKK7 phosphorylation by TNFα may be due inhibition of the MKK7 ability to auto-phoshorylate and/or to serve as substrate for upstream kinases. Altogether, the findings identify MKK7 as a target of Gadd45β, and of NF-[…]B, in the JNK cascade. Of interest, MKK7 is a selective activator of JNK, and its ablation abolishes JNK activation by TNFα. Thus, blockade of MKK7 is sufficient on its own to explain the effects of Gadd45β on JNK signaling—i.e. its specific and near-complete suppression of this signaling. […]

Row | Molecule | effect on ASK1 kinase activity
1 | B1 | neither GST-Gadd45β nor His6-Gadd45β (His6 disclosed as SEQ ID NO: 46) had significant effects
2 | B2 | did not hamper
3 | B3 | neither GST-Gadd45β nor His6-Gadd45β (His6 disclosed as SEQ ID NO: 46) had significant effects
